Measurements reported in patent US6500934 (dated 2002).
Non-standard residues stand in square brackets, D forms with d. No end group written: not given here. Ahx = NCCCCCC(=O)O

Target: bombesin receptor expressed in transfected Xenopus laevis melanophores (plasmid pJG3.6BR)
Test: cell-based or functional assay

B1: Bombesin monomer (K(20)-εAhx-GGG-QQRLGNQWAVGHLM) (peptide)
peptide: KKKKKKKKKKKKKKKKKKKK[Ahx]GGGQQRLGNQWAVGHLM-NH2
modifications: ends and bridges not checked
- EC50 (t=30 min) of pigment dispersion in melanophores transfected with the bombesin receptor: 110 nM
